Numbering of substitutions follows the chain as printed.
B1: F3′-GB102 (bispecific antibody, human IgG1, kappa)
chain: DIVMTQSPDSLAVSLGERATINCRASESVDTYGSSFVHWYQQKPGQPPKLLIYLASNLESGVPDRFSGSGSGTDFTLTISSLQAEDVAVYYCQQNNEEPWTFGCGTKVEIKGGGGSGGGGSGGGGSGGGGSQVQLVQSGAEVKKPGASVKVSCKASGYTFTRYVMHWVRQAPGQCLEWMGFINPYNDDTKYNEKFKGRVTITRDTSASTAYMELSSLRSEDTAVYYCARWRQLGSLDSWGQGTTVTVSSGSDKTHTCPPCPAPELLGGPSVFLFPPKPKDTLMISRTPEVTCVVVDVSHEDPEVKFNWYVDGVEVHNAKTKPREEQYNSTYRVVSVLTVLHQDWLNGKEYKCKVSNKALPAPIEKTISKAKGQPREPRVYTLPPCRDELTKNQVSLTCLVKGFYPSDIAVEWESNGQPENNYKTTPPVLVSDGSFTLYSKLTVDKSRWQQGNVFSCSVMHEALHNHYTQKSLSLSPG
heavy: EVQLVESGGGLVKPGGSLRLSCAASGFTFSSYSMNWVRQAPGKGLEWVSSISSSSSYIYYADSVKGRFTISRDNAKNSLYLQMNSLRAEDTAVYYCARGAPIGAAAGWFDPWGQGTLVTVSSASTKGPSVFPLAPSSKSTSGGTAALGCLVKDYFPEPVTVSWNSGALTSGVHTFPAVLQSSGLYSLSSVVTVPSSSLGTQTYICNVNHKPSNTKVDKKVEPKSCDKTHTCPPCPAPELLGGPSVFLFPPKPKDTLMISRTPEVTCVVVDVSHEDPEVKFNWYVDGVEVHNAKTKPREEQYNSTYRVVSVLTVLHQDWLNGKEYKCKVSNKALPAPIEKTISKAKGQPREPQVCTLPPSRDELTENQVSLTCLVKGFYPSDIAVEWESNGQPENNYKTTPPVLDSDGSFFLYSWLTVDKSRWQQGNVFSCSVMHEALHNHYTQKSLSLSPG
light: DIQMTQSPSSVSASVGDRVTITCRASQGISSWLAWYQQKPGKAPKLLIYAASSLQSGVPSRFSGSGSGTDFTLTISSLQPEDFATYYCQQGVSFPRTFGGGTKVEIKRTVAAPSVFIFPPSDEQLKSGTASVVCLLNNFYPREAKVQWKVDNALQSGNSQESVTEQDSKDSTYSLSSTLTLSKADYEKHKVYACEVTHQGLSSPVTKSFNRGEC
notes: also called FLT3-targeting TriNKET
B2: GB102 monoclonal antibody in the human IgG1 format (antibody, V domains shown)
VH: QVQLVQSGAEVKKPGASVKVSCKASGYTFTRYVMHWVRQAPGQRLEWMGFINPYNDDTKYNEKFKGRVTITRDTSASTAYMELSSLRSEDTAVYYCARWRQLGSLDSWGQGTTVTVSS
VL: DIVMTQSPDSLAVSLGERATINCRASESVDTYGSSFVHWYQQKPGQPPKLLIYLASNLESGVPDRFSGSGSGTDFTLTISSLQAEDVAVYYCQQNNEEPWTFGGGTKVEIK
notes: also called parental mAb

Tests used:
[1] = biological target: T1, FLT3-ITD expressed on MV4-11 cells (human, UniProt P36888 27-543); assay: flow cytometry on MV4-11 cells (FLT3-ITD), anti-human IgG secondary antibody, gMFI
T1 construct: whole, on cells; the ITD itself is not described; also called hFLT3-ITD; FLT3 with the ITD mutation
T1 sequence (looked up): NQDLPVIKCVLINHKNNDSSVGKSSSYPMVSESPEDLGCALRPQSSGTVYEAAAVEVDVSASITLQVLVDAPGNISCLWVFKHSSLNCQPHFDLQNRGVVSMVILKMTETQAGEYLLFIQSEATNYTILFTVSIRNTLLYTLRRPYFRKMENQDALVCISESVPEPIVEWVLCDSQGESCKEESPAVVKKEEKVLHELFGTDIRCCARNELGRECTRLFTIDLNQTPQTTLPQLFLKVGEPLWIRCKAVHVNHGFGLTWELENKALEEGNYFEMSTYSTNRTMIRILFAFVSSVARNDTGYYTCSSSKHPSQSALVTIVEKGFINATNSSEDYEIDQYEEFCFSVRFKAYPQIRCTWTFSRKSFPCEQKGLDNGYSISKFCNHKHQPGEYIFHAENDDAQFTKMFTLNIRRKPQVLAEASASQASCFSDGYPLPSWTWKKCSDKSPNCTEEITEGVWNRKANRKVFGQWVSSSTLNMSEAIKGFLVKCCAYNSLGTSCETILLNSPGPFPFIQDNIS
From the text: (§1) Isogenic cell lines ectopically expressing human and cynomolgus monkey FLT3 were used to assess cross-reactivity between human and cynomolgus monkey FLT3. […] cancer cell line RMA expressing hFLT3 or cFLT3 was used to assess tumor antigen binding of FLT3-targeting TriNKET and parental mAb. The human AML cell lines MOLM-13 and MV4-11 and the human ALL cell line REH were used to assess binding ability of the TriNKET or parental mAb. In particular, MOLM-13 cells and MV4-11 cells, which expressed FLT3-T227M and FLT3-ITD, respectively, were used to assess the ability of the FLT3-targeting TriNKET and parental mAb to bind mutant FLT3.
(§2) The cells were then incubated with a fluorophore conjugated anti-human IgG secondary antibody and were analyzed by flow cytometry. The mean fluorescence intensity (MFI) values were normalized to secondary antibody only controls to obtain fold over background (FOB) values.

[2] = biological target: T2, human FLT3 (hFLT3) expressed on cells (human, UniProt P36888 27-993); assay: flow cytometry on REH cells, anti-human IgG secondary antibody, fold over background (FOB)
T2 construct: whole, on cells; One molecule for all cell lines that carry human FLT3; also called RMA-hFLT3; FLT3 on REH cells
T2 sequence (looked up): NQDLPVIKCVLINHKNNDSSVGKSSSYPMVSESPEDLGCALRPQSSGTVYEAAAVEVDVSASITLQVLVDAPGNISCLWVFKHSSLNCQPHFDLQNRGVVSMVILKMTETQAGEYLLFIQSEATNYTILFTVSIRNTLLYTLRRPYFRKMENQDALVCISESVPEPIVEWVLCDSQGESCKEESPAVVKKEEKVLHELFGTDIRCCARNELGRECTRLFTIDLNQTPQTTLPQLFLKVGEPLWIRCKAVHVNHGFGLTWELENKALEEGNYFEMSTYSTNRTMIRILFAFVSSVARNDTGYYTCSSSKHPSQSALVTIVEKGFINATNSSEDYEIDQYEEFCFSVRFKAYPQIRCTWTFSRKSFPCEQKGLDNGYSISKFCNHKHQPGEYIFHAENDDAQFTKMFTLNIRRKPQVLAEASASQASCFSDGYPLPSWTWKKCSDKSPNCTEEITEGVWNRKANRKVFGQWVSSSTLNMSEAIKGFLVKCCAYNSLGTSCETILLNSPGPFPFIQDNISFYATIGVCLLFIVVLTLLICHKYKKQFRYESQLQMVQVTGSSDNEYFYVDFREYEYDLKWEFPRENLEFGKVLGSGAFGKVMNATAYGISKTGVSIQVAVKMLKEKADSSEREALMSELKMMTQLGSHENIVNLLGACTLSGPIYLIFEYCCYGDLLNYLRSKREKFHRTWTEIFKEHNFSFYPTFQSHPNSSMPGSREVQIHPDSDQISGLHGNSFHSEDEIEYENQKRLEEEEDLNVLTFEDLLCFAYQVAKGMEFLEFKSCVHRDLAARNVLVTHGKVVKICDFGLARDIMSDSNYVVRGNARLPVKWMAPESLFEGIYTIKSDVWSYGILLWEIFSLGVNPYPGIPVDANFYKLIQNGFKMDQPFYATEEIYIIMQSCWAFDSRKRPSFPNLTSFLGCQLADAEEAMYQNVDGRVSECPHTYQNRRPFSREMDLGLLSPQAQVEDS
From the text: as §1, §2

[3] = biological target: T2, human FLT3 (hFLT3) expressed on cells; assay: flow cytometry on RMA-hFLT3 cells, anti-human IgG secondary antibody, fold over background (FOB)
From the text: as §1, §2

[4] = biological target: T3, cynomolgus monkey FLT3 (cFLT3) expressed on RMA cells (cynomolgus monkey, UniProt A0A2K5VQ48 27-993); assay: flow cytometry on RMA-cFLT3 cells, anti-human IgG secondary antibody, fold over background (FOB)
T3 construct: whole, on cells; also called RMA-cFLT3; cynomolgus FLT3
T3 sequence: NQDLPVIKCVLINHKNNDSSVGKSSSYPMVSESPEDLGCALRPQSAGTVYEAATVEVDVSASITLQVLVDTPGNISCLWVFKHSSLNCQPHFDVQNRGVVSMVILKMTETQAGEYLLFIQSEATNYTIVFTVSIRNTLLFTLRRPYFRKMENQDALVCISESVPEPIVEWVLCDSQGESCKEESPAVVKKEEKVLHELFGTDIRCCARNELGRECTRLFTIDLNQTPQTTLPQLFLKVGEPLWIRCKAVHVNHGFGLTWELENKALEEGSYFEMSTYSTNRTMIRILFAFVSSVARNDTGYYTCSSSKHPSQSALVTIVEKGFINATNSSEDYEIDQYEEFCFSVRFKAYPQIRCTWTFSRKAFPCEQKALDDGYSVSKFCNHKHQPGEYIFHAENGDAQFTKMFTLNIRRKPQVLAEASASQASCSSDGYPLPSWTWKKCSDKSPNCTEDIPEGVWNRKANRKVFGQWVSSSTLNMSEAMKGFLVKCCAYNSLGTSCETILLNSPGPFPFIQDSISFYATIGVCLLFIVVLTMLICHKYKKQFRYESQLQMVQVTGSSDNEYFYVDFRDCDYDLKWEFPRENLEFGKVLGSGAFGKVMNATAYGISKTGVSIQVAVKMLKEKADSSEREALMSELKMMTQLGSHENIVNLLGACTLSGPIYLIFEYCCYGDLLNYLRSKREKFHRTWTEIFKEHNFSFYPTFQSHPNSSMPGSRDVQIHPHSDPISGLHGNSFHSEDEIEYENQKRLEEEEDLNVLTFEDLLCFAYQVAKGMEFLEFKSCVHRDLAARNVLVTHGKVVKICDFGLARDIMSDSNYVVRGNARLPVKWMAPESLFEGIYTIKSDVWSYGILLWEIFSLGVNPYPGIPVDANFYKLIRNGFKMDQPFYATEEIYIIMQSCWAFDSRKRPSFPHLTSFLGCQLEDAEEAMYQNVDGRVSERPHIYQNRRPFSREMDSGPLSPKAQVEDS
From the text: as §1, §2

[5] = biological target: T4, FLT3-T227M expressed on MOLM-13 cells (human, UniProt P36888 27-993); assay: flow cytometry on MOLM-13 cells (FLT3-T227M), anti-human IgG secondary antibody, gMFI
T4 construct: whole, on cells; also called hFLT3-T227M; FLT3 with T227M mutation
T4 sequence (looked up): T2 sequence (looked up) with T201M
From the text: as §1, §2

EC50 (read off the curve) [1] [nM]	EC50 (read off the curve) [2] [nM]	EC50 (read off the curve) [3] [nM]	EC50 (read off the curve) [4] [nM]	EC50 (read off the curve) [5] [nM]	Binder
~1	~5	~1	~1		B1
	~1	~0.5	~0.6	~2	B2

Reference: patent publication US20240117054A1 (DRAGONFLY THERAPEUTICS, published 2024)
